Measured values reported in the supplement of paper PMC12855868.

B1: library; numbered along this chain (parent)
chain: MAAAGGARLLRAASAVLGGPAGRWLHHAGSRAGSSGLLRNRGPGGSAEASRSLSVSARARSSSEDKITVHFINRDGETLTTKGKVGDSLLDVVVENNLDIDGFGACEGTLACSTCHLIFEDHIYEKLDAITDEENDMLDLAYGLTDRSRLGCQICLTKSMDNMTVRVPETVADARQSIDVGKTS

Variants of: B1
Test: scaled log2 fold change in cell abundance, elesclomol vs control (0 = silent mean, 1 = nonsense mean) (scaled log2 ratio); higher = higher viability under elesclomol (loss of FDX1 cuproptosis function)
Conditions: with HEK293T FDX1 KO; elesclomol 40 nM; glucose 10 mM; 11 days
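Further: variant abundance is its share of total variant reads in each endpoint sample, from next-generation sequencing of the integrated ORF PCR-amplified out of genomic DNA.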

Row | Variant | scaled log2 fold change
1 | T157W | -0.456
2 | D173I | 0.102
3 | S14N | 0.029
4 | S61A | 0.782
5 | S61T | 0.136
6 | S61L | 0.17
7 | S61H | 1.68
8 | R31D | 0.39
9 | R31L | -0.385
10 | V94Y | 0.515
11 | G29N | 1.01
12 | G29Q | 0.00954
13 | G29L | 0.376
14 | G29H | -0.53
15 | W24D | -0.665
16 | W24S | -0.637
17 | W24Y | 0.0942
18 | C152I | 1.09
19 | Y124K | -0.66
20 | A129N | 0.865
21 | G22S | 1.21
22 | G22D | 0.368
23 | A57P | -0.118
24 | A57V | 0.356
25 | P20R | 0.465
26 | P20V | 0.328

Row | Variant | scaled log2 fold change
27 | S50F | -0.396
28 | S50V | -0.0587
29 | A4P | -0.59
30 | P168G | -0.0258
31 | K84H | 0.273
32 | A21W | 0.402
33 | S30P | -0.513
34 | S30W | -0.103
35 | A15R | -0.519
36 | L9A | 0.241
37 | R60D | 0.0454
38 | V92Y | -0.087
39 | N40G | -0.0433
40 | N40A | 1.14
41 | N40H | -0.707
42 | S56Q | 0.782
43 | S56I | -0.305
44 | H26V | 0.418
45 | H26I | 0.477
46 | M137W | 1.1
47 | L140K | -0.169
48 | V55A | -0.0113
49 | M163W | 0.247
50 | E125I | -0.618
51 | D75P | -0.0681
52 | D75G | 0.0557

Row | Variant | scaled log2 fold change
53 | G33D | 0.213
54 | L37I | 1.2
55 | L37A | 0.765
56 | L37N | -0.668
57 | L127C | 0.0207
58 | S62V | -0.946
59 | S62P | 0.152
60 | V16H | 0.416
61 | H27D | -0.507
62 | S46G | 0.651
63 | R51I | 0.315
64 | S88K | -0.315
65 | S88H | -0.0956
66 | S88D | 0.11
67 | S88M | 0.379
68 | S88P | -0.895
69 | T114C | 0.117
70 | V171D | -0.239
71 | V171G | 0.349
72 | L89I | -0.0352
73 | G83C | 0.00891
74 | T78A | -1.2
75 | T78F | -0.765
76 | G76W | -0.575
77 | L25F | 0.845
78 | E107S | -0.279

Same assay, conditions: with ABC1 FDX1 KO; elesclomol 5 nM; glucose 10 mM; 14 days

Row | Variant | scaled log2 fold change
79 | V94Y | -0.0972
80 | C152I | 1.12
81 | Y124K | 0.0432
82 | L38G | -0.74
83 | A57V | -0.164
84 | K84H | 0.0255
85 | K84M | 0.138
86 | V92Y | 0.0368
87 | S56Q | -0.214
88 | S56I | -0.125
89 | M137W | -0.244
90 | L140K | -0.153
91 | M163W | 0.598
92 | H27D | -0.0235
93 | S46G | 0.864
94 | T114C | 0.158
95 | V171D | -0.592
96 | G83C | 0.0146
